T1: recombinant human Ang2-FLD (human, UniProt O15123 275-496, limits assumed)
T1 construct: domain: FLD; not used
T1 sequence (looked up): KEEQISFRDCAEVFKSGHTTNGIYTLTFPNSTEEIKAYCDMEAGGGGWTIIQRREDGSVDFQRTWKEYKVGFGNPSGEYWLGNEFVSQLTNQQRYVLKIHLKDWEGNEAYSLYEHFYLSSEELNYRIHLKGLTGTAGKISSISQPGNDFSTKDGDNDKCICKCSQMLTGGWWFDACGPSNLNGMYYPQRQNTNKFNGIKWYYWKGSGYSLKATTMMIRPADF

B1: VHH 55D06 (VHH)
VHH: EVQLVESGGGLVQAGGSLRLSCAASGLTLDDYAIGWFRQAPGKEREGVSSIRDNDGSTYYADSVKGRFTISSDNDKNTVYLQMNSLKPEDTAVYYCAAVPAGRLRFGEQWYPIYEYDAWGQGTLVTVSS
notes: periplasmic extract; not shown: C-terminal c-myc tag and His6 tag
B2: VHH 53A06 (VHH)
VHH: EVQLVESGGSLVQAGGSLRLSCAASGLTLDDYAIGWFRQAPGKEREGVSSIRDNDGSTYYADSVKGRFTISSDNDKNTVYLQMNSLKPEDTAVYYCAAVPAGRLRFGEQWYPIYEYDAWGQGTLVTVSS
notes: as for B1
B3: VHH 55A06 (VHH)
VHH: EVQLMESGGGLVQAGGSLRLSCAASGITLDDYAIGWFRQAPGKEREGVSSIRDNDGSTYYADSVKGRFTISSDNDKNTVNLQMNSLKPEDTAVYYCAAVPAGRLRFGEQWYPIYEYDAWGQGTLVTVSS
notes: as for B1
B4: VHH 55F02 (VHH)
VHH: EVQLVESGGGLVQSGGSLRLSCAASGLTLDDYAIGWFRQAPGKEREGVSSIRDNDGSTYYADSVKGRFTISSDNDKNTVYLQMNSLKPEDTAVYYCAAVPAGRLRFGEQWYPIYEYDAWGQGTLVTVSS
notes: as for B1
B5: VHH 55G03 (VHH)
VHH: EVQLVESGGSLVQAGGSLRLSCAASGLTLDDYAIGWFRQAPGKEREGVSSIRDNDGSTYYADSVKGRFTISSDNDKNTVYLQMNSLKPEDTAVYYCAAVPAGRLRFGEQWYPIYEYDAWGQGTLVTVSS
notes: as for B1
B6: VHH 56A07 (VHH)
VHH: EVQLVESGGGLVQAGGSLRLSCAASGFTLDDYAIGWFRQAPGKEREGVSSIRDNDGSTYYADSVKGRSTISSDNARNTVFLQMNSLKPEDTAVYYCAAVPAGRLRFGEQWYPIYEYDAWGQGTLVTVSS
notes: as for B1
B7: VHH 58D10 (VHH)
VHH: EELLVESGGGSVQAGGSLKLSCAASGLTLDDYAIGWFRQAPGKEREGVSSIRDNDGSTYYADSVKGRFTISSDNDKNTVYLQMNSLKPEDTAVYYCAAVPAGRLRFGEQWYPIYEYDAWGQGTLVTVSS
notes: as for B1
B8: VHH 60A06 (VHH)
VHH: EVQLVESGGGLVQAGGSLRLSCAASGFTLDDYAIGWFRQAPGKDREGVSSIRDNDGSTYYADSVKGRFTISSDNDKNTVYLQMNSLKPEDTAVYYCAAVPAGRLRYGEQWYPIYEYDAWGQGTVVTVSS
notes: as for B1
B9: VHH 60C09 (VHH)
VHH: EVQLVESGGGLVQAGGSLRLSCAVSGITLDDYAIGWFRQAPGKEREGVSSIRDNDGSTYYADSVKWRFTISSDNDKNTVYLQMNSMKPEDTAVYYCAAVPAGRLRFGEQWYPIYEYDAWGQGILVTVSS
notes: as for B1
B10: VHH 64A03 (VHH)
VHH: EVQLLESGGGLVQAGGSLRLSCAASGFTLDDYAIGWFRQAPGKEREGVSSIRDNDGSTYYADSVKGRFTISSDNDKNTVYLQMNSLKPEDTAVYYCAAVPAGRLRIGEQWYPIYEYDAWGQGTLVTVSS
notes: as for B1
B11: VHH 64B01 (VHH)
VHH: EVQLVESGGGLVQAGGTLRLSCAVSGFTLDDYAIGWFRQAPGKEREGVSSIRDNDGSTYYADSVKGRFTISSDNDKNTVYLQMNSLKPEDTAVYYCAAVPAGRLRFGEQWYPIYEYDAWGQGILVTVSS
notes: as for B1
B12: VHH 64B02 (VHH)
VHH: EVQLVESGGGLVQAGGFLRLTCAVSGFTLDDYAIGWFRQAPGKEREGVSSIRDNDGSTYYADSVKGRFTISSDNVKNTVYLQMNSLKPEDTAVYYCAAVPAGRLRFGEQWYPIYEYDAWGQGTLVTVSS
notes: as for B1
B13: VHH 64C03 (VHH)
VHH: EVQLVESGGGLVQAGGSLRLSCAASGFTLDDYAIGWFRQAPGKEREGVSSIRDNDGSTYYADSVKGRFTISSDNDKNTVYLQMNSLKPEDTAVYYCAAVPAGRLRYGEQWYPIYEYDAWGQGTLVTVSS
notes: as for B1
B14: VHH 64C07 (VHH)
VHH: EVHLVESGGGLVQAGGSLRLSCAASGLTLDDYAIGWFRQAPGVEREGVSSIRDNDGSTYYADSVKGRFTISSDNDKNTVYLQMNSLKPEDTAVYYCAAVPAGRLRFGEQWYPIYEYDAWGQGTLVTVSS
notes: as for B1
B15: VHH 64D11 (VHH)
VHH: EVQLVESGGGQAQAGGSLRLSCAVSGFTLDDYAIGWFRQAPGKEREGVSSIRDNDGSTYYTDSVKGRFTISSDNDKNTVYLQMNSLKPEDTAVYYCAAVPAGRLRFGEQWYPIYEYDAWGQGTLVTVSS
notes: as for B1
B16: VHH 64E12 (VHH)
VHH: EVQLVESGGGLVQAGGSLRLSCAVSGFTLDDYAIGWFRQAPGKEREGVSSIRDNDGSTYYADSVKGRSTISSDNDKNTVYLQMNSLKPEDTAVYYCAAVPAGRLRFGEQWYPIYEYDAWGQGTLVTVSS
notes: as for B1
B17: VHH 64F03 (VHH)
VHH: EVQLVESGGGLVQAGGSLRLSCAVSGITLDDYAVGWFRQAPGKEREGVSTIRDNDGSTYYADSVKGRFTISSDNDKNTVYLQMNSLKPKDTAVYYCAAVPAGRLRFGEQWYPIYEYDAWGQGTLVTVSS
notes: as for B1
B18: VHH 64F07 (VHH)
VHH: QVQLVESGGGLVQAGGSLRLSCAVSGFTLDDYAIGWFRQAPGKEREGVSSIRDNDGSTYYADSVKGRFTISSDNDQNTVYLQMNSLKSEDTAVYYCAAVPAGRLRFGEQWYPIYEYDAWGQGTLVTVSS
notes: as for B1
B19: VHH 64G01 (VHH)
VHH: EVQLVESGGGLVQAGGSLRLSCAASGFTLDDYAIGWFRQAPGKEREGVSSIRDNDGSTYYADSVKGRFIISSDNDKNTVYLQMNNLKPEDTAVYYCAAVPAGRLRYGEQWYPIYEYDAWGQGTLVTVSS
notes: as for B1
B20: VHH 64G02 (VHH)
VHH: EVQLVESGGGLVQAGGSLRLSCAISGFTLVDYAIGWFRQAPGKEREGVSSIRDNDGSTYYADSVKGRFIISSDNDKNTVYLQMNSLKPEDTAVYYCAAVPAGRLRFGEQWYPIYEYDAWGQGTLVTVSS
notes: as for B1
B21: VHH 64G03 (VHH)
VHH: EVQLVESGGGLVQAGGSLRLSCAASGFTLDDYAIGWFRQAPGKEREGVSSIRDNDGSTYYADSVKGRSTISSDNDKNTVYLQMDSLKPEDTAVYYCAAVPAGRLRYGEQWYPIYEYDAWGQGTLVTVSS
notes: as for B1
B22: VHH 64G11 (VHH)
VHH: EVQLVESGGGLVQAGGSLRLSCAASGITLDDYAIGWFRQAPGKERVGVSSIRDNDGSTYYADSVKGRFTISSDNDKNTVYLQMNSLKPEDTAVYYCAAVPAGRLRFGEQWYPIYEYDAWGQGTLVTVSS
notes: as for B1
B23: VHH 64G12 (VHH)
VHH: EVQLVESGGGLVQAGGSLRLSCAVSGFTLDDYAIGWFRQAPGKEREGVSSIRENDGSTYYADSVQGRFTISSDNDKNTVYLRMNSLKPEDTAVYYCAAVPAGRLRFGEQWYPIYEYDAWGQGTLVTVSS
notes: as for B1
B24: VHH 65F01 (VHH)
VHH: EVQLVESGGGLVQAGGSLRLSCAASGLTLDDYAIGWFRQAPGKEREGVSSIRDNDGSRYYADSVKGRFTISSDNDKNTVYLQMNSLKPEDTAVYYCAAVPAGRLRFGEQWYPIYEYDAWGQGTLVTVSS
notes: as for B1
B25: VHH 65F03 (VHH)
VHH: EVQMVESGGGLVQAGGSLRLSCAASGLTLDDYAIGWFRQAPGKEREGVSSIRDNDGSTYYADSVKGRFTISSDNDKNTVYLQMNGLKPEDTAVYYCAAVPAGRLRFGEQWYPIYEYDAWGQGTLVTVSS
notes: as for B1

molecular target: T1, recombinant human Ang2-FLD; experiment: ProteOn off-rate assay, periplasmic extract 1:10 over coated human Ang2-FLD
Experimental: In a first cycle, amino acid substitutions are introduced randomly in both framework (FW) and complementary determining regions (CDR) using the error-prone PCR method. […] After a polish step, PCR products are inserted via unique restriction sites into a vector designed to facilitate phage display of the VHH library. […] Periplasmic extract of affinity matured clones is diluted 1:10 and injected across the “analyte channels” A1-A6.

Q: What does the source list for B1?
A: fold improvement (off-rate against VHH 00027): 9.4 fold; koff: 0.00012 s⁻¹

Q: How did the “fold improvement (off-rate against VHH 00027)” value (shortened to “fold improvement”) turn out when B2 was run?
A: 8 fold

Q: And the koff?
A: 0.00016 s⁻¹

Q: What does the source list for B3?
A: fold improvement (off-rate against VHH 00027): 9.2 fold; koff: 0.00013 s⁻¹

Q: With B4 as the binder, how does the “fold improvement” value read?
A: 8.7 fold

Q: What about the koff of the same binder?
A: 0.00014 s⁻¹

Q: What does the source list for B5?
A: fold improvement (off-rate against VHH 00027): 8 fold; koff: 0.00015 s⁻¹

Q: Which “fold improvement” value does the source give for B6 here?
A: 8.1 fold

Q: What about the koff of the same binder?
A: 0.00015 s⁻¹

Q: How did the “fold improvement” value turn out when B7 was run?
A: 8.1 fold

Q: And the koff?
A: 0.00013 s⁻¹

Q: For B8, which “fold improvement” value is on record?
A: 8.3 fold

Q: What about the koff of the same binder?
A: 0.00016 s⁻¹

Q: How did the “fold improvement” value turn out when B9 was run?
A: 8.5 fold

Q: And the koff?
A: 0.00016 s⁻¹

Q: How did the “fold improvement” value turn out when B10 was run?
A: 8.3 fold

Q: What about the koff of the same binder?
A: 0.00014 s⁻¹

Q: Which “fold improvement” value does the source give for B11 here?
A: 8.2 fold

Q: And the koff?
A: 0.00014 s⁻¹

Q: With B12 as the binder, how does the “fold improvement” value read?
A: 8.5 fold

Q: What about the koff of the same binder?
A: 0.00014 s⁻¹

Q: For B13, which “fold improvement” value is on record?
A: 9.2 fold

Q: And the koff?
A: 0.00013 s⁻¹

Q: For B14, which “fold improvement” value is on record?
A: 8.3 fold

Q: And the koff?
A: 0.00014 s⁻¹

Q: Which results are given for B15?
A: fold improvement (off-rate against VHH 00027): 10.3 fold; koff: 0.00011 s⁻¹

Q: With B16 as the binder, how does the “fold improvement” value read?
A: 8.7 fold

Q: What about the koff of the same binder?
A: 0.00013 s⁻¹

Q: With B17 as the binder, how does the “fold improvement” value read?
A: 10.8 fold

Q: What about the koff of the same binder?
A: 0.00011 s⁻¹

Q: Which “fold improvement” value does the source give for B18 here?
A: 9.4 fold

Q: And the koff?
A: 0.00012 s⁻¹

Q: Which results are given for B19?
A: fold improvement (off-rate against VHH 00027): 8.2 fold; koff: 0.00014 s⁻¹

Q: With B20 as the binder, how does the “fold improvement” value read?
A: 9.4 fold

Q: What about the koff of the same binder?
A: 0.00012 s⁻¹

Q: With B21 as the binder, how does the “fold improvement” value read?
A: 15.7 fold

Q: And the koff?
A: 7.4e-05 s⁻¹

Q: For B22, which “fold improvement” value is on record?
A: 9.6 fold

Q: And the koff?
A: 0.00012 s⁻¹

Q: For B23, which “fold improvement” value is on record?
A: 8.9 fold

Q: What about the koff of the same binder?
A: 0.00013 s⁻¹

Q: For B24, which “fold improvement” value is on record?
A: 8.1 fold

Q: What about the koff of the same binder?
A: 0.00016 s⁻¹

Q: Which results are given for B25?
A: fold improvement (off-rate against VHH 00027): 8.9 fold; koff: 0.00014 s⁻¹

Reference: patent US20230203146A1 (Boehringer Ingelheim, published 2023)
